In one series the test system is HMGN1. Kind of series: two-color EMSA. The following applies: value stated for HMGNs together, EMSA: 100 nM nucleosomes in 10 µl 2x TBE (45 mM Tris-borate pH 8.3, 1 mM EDTA), 0.15 mg/ml BSA, 5% Ficoll, 10 min at 4 °C, native 5% PAGE in 2x TBE …. Background: In EMSA bound probe runs differently from free probe, usually more slowly.
The test system of a further series is HMGN2. The series can be described thus: two-color EMSA. The following applies: value stated for HMGNs together, EMSA: 100 nM nucleosomes in 10 µl 2x TBE (45 mM Tris-borate pH 8.3, 1 mM EDTA), 0.15 mg/ml BSA, 5% Ficoll, 10 min at 4 °C, native 5% PAGE in 2x TBE ….
[1] abbreviates: low HMGN:nucleosome ratio, histone H3K27ac, scale: ratio of shifted rMNH3K27ac to rMN fluorescence.
Setting [2] is: no preference over rMN, histone H3K27me3, scale: ratio of shifted rMNH3K27me3 to rMN fluorescence.

These results are taken from paper PMC8866397.

rMNH3K27ac: the binding signal in the series with HMGN1 (setting [1]) and in the series on HMGN2 (setting [1]) was 1.7 in each case.
On to rMNH3K27me3, for which the binding signal with HMGN1 (setting [2]) and in the series with HMGN2 (setting [2]) was 1 throughout.
